# The nanobody polyreactivity screen of Harvey et al. (2022)
# Assay: yeast display, Sf9 membrane polyspecificity reagent, FACS + sequencing; frameworks hold sequencing errors
# In short: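 Genes from sorted yeast were amplified by colony PCR, read by MiSeq 2 × 250 sequencing and filtered on CDR length. These cells carried a synthetic nanobody library in Saccharomyces cerevisiae BJ5465 and were sorted by FACS into low and high (top ~1%) gates on anti-HA and streptavidin fluorescence. Polyreactivity is labelled according to the gate of origin.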
row,Sequence,polyreactivity (PSR sort gate)
1,QVQLVESGGGLDQAGGSLRLSCAASGSIFYAYAMGWYRQAPGKEREFVAVISRGGITNYADSVKGRFTISRDNAKNTVYLELNSLKPEDTAVYYCAAGTSAWGYLRRYGYWGQGSQVTVSS,low polyreactivity
2,QVQLVESGGGLVQAGGSLRLSCAASGITFSGNTMGWYRQAPGKERELVAAISSGGSTYYADSVKGRFTISRDNAKNTVLLQMNSLKPEDTAVYYCNADIYYAPYDYWGQGTQVTVSS,low polyreactivity
3,QVQIVESGGGLVQAGGSLRLTCAASGFTFGPYAMGWYRQEPGKERELVAAITVNGSSTYADSVKGRFTISRDNAKNTVVLQMNSLKPEDTAVYYCAATVYPGGPYGGDSDYWGQGTQVTVSS,low polyreactivity
4,QVQLVESGGGLVQAGGSLRLSCAASGRTFTIYARGWYRQAPGKERELVAAIRRTGVSTYYADSVKGRFTISRDYAKNTVYLQMNSLKPEDTAVYYCAARQYSYLRLWWYEYWGQGTQVTVSS,high polyreactivity
5,QVQLVESGGGLVQAGGSLRLSCAASGGIFDTNAMGWYRQAPGKEREFVAAITGSGGSTYYADSVKGRFTISRDYAKNSVYLQMNSLKPEDTAVYYCAAPLSYYWVFIVRYGYDYWGQGTQVTVSS,low polyreactivity
6,QVQLVESGGGLVQAGGSLRLSCAASGSTFHRYTMGWYRQAPGKERELLAAISWSGGSTYYADSVKGRFTISRDNAKNTVYLQMNSLKPEDTAVYYSNKVTVYRFRGDSWGQGTQVTVSS,high polyreactivity
7,QVQLVESGGGLVQAGGSLRLSCAASGRTFVRYAMGWYRQAPGKERELVAAISWSGGSTYYADSVKGRFTISRDNAKNTVYLQKNSLKPEDTAVYYCAAVDETPSSHEEDYWGQGTQVTVSS,high polyreactivity
8,QVQLVESGGGLVQAGGSLRLSCAAYGSTFNYKAMAWYRQAQGKERELVATITTSGGSTYYADSVKGRFTISRDNAKNTVYLQMNSLKPEDTAVYYCAARYPWSVYRIYGAHYDYWGQGTLVTVSS,low polyreactivity
9,QVQLVESGGGLLQAGGSLRLSCAASGFTFTTYAMGWYRQAPGKERELVAAITRRGGSTYYADSVKGRFTISRDNAKNTVYFQMNSLKPEDTAVYYCAAGGGWGLDYWGQGTQVTVSW,high polyreactivity
10,QLQLVESGRGLVQAGGSLRLSCAASGSTFQLYTMGLYRQAPGKERELVAAITGSGGSTYYADSVKGRFTISRDNAKNTVYLQMNSLKPEDTAVYYCAAKSSFRIAWEYYYWGQGTQGTVSS,high polyreactivity
11,QVQLGESGGGLVQAGGSLRLSCAASGSTFDYYAMGWYRQAPGKERELVAGITSDGSTYYADSVKGRFTISRDNAKNTVYLQMNSLKPEDTAVYYCNKDSTGDGYEYWGQGTQVTVSS,low polyreactivity
12,QVQLVESGGGLVQAGGSLRLSCAASGSIFNRYAMGWFRQAPGKERELVAAISRRGAGTYYADSVKGRFTISRDNAKNTVYLQMNSLKPEDTAVYYCAATLSYTGSKRYDYWGQGTQVTVSS,high polyreactivity
13,QVQLVESGGGLVQAGGSLRLSCAASGFTFSGYAMGWYRQAPGKERELVAVIRGRGGRTYYADSVKGRFTISRDNAKNTVYLQMNSLKPEDTAVYYCAARRDAYYYVPNRFDYWGQGTQVTVSS,high polyreactivity
14,QVQHVESGGGLVQAGGSLRLSCAASGRTFVTYAMGWYRQAPGKERELVAAISKRGSRTYYADSVKGRFTISRDNAKNTVYLQMNSLKPEDTAVYYCNADPYRTSYDYWGQGTQVTVSS,high polyreactivity
15,QVQLVESGGGLVQAGGSLRLSCAASGRTFNIYDMGGYIPAPGTERELVAAITGRGTGTYYADSVKGRFTISRDNAKNTVYLQMNSLKPEDTAVYFCAAVRRWYYPALSEHDYWGQGTQVTVSS,low polyreactivity
16,QVQLVESRGVLVQAGGSLRLSCAASGFTFYHYAMGWYRQAPGKDRELVAALDNGGSTYADSVKGRFTISRDNATNTVSLQRNSLKPEDTAVYYCAAVYLRYINGFYFWGQGTQVTVSS,low polyreactivity
17,QIQLVESGGGLVQAGGSLRLSCAASGSIFSKYAMGWYRQAPGKERELVAAISAGGGSTYYADSVKGRFTISRDNAKNTVYLQMNSLKPEDTAVYYCAARSRFRFDYWVQGTQVTVSS,high polyreactivity
18,QVQLVESGGGLVQAGGSLRLSCAATGRTFTGNVMGWYRQAPGKERELVAAISRSGTSTYYADSVKGRFTISRDNAKNTVYLQMNSLKPEDTAVYYCAARRTAGYRSGEYDYWGQGTQVTVSS,high polyreactivity
19,QVQLVESGGGLVQAGGSLRLSCAASGRIFRGNAMGWYRQAPGKERELVAAISWGGGSTYYAYSVKGRFTISRDNAKNTVYLQMNSLKPEDTAVYYWNKEYVFWRFPNWYTYGYWGQGTQVTLSS,high polyreactivity
20,QVQLVESGGGLVQAGGSLRLSCAASGRIFYAYAMGWYRPAPGNERELVAAITISASSTYYADSVKGRFTISRDNAKNTVYLQMNSLKPEDTAVSYCAAAYRRPWWYSYRYGYWGQGTQVTVSS,high polyreactivity
21,QVQLVESGGGLVQAGGSLRLSCAASGFTFQGNAMGWYRQAPGKERELVAAISWSGGRTYYADSVKGRFTISRDNAKNTVYCQMNSLKPEDTAVYYCAIVYKDVSGDDYWGQGTQVTVSS,low polyreactivity
22,QVQLVESGGGLVQAGGSLRLSCAASGRIFRSNAIGWYRQAPGKERELVSVITWCGGSTYYADSVKGRFTITRDTAKNTVYIQMNSLKPEDTAVYYCAKRRAAVNGRSYYYYWGQGTQVTVSS,high polyreactivity

row,Sequence,polyreactivity (PSR sort gate)
1,QVQLVESGRGLVQAGGSLRLSCAASGFIFRTYVMGWSRQATGKERELVAAITSSGGSTYYADSVKGRFTISRDTAKNTVYLQMNSLIPEDTAVYYCNAYPVYGRYTHYGYGHWGQGTQVTVSS,high polyreactivity
2,QVQLVESGGGLVQAGGSLRLSCAASGSIFRSYAMGWYRQAPGKERELVASISRRGGSTYYADSVKGRFTISRDNAKNTVYLQMNSLKPEDTAVYYCAVESGYTRSSDYWGQGTQVTVSS,low polyreactivity
3,QVQLVESGGGLVQSGGSLRLSCAASGSTFTLYAMGWYRQAPGKERELVAAIRASVGRTYNADSVKGRFTISRDNAKNTVYLQMNSLKPEDTAVYYCNAYGRYGKFRVEYDYWGQGTQVTVSS,low polyreactivity
4,QVQLVESGGGLVQAGGSLRLSCAASGSTFSNYAMGWYRQAPGKERELVASISNGGSTNYADSVKGRFTISRDNAKNTVYLQMNSLKPEDTAVYNCNAESKAKYDYWGQGTQVTVSS,low polyreactivity
5,QVQLVESGGGLVQAGGSLRLTCAASGRTFDCYAMGLYRQAPGKERELVAAISSRGGSTYYADSVKGRFTISRDNAKNTVYLQMNSLKPEDTSVYYCAKDLGYRGRYNYWGQGTQVTVSS,low polyreactivity
6,QVQLVESGGGLVQAGGSLRLSCAASGRTFGYNTMGWYRQAPGKERELVARITWSGASTYYADSVKGRFTISRDNAKNTVYLQMNSLKPEDTAVYYCNTAYTVSWRSPYDYWGQGTQVTVSS,high polyreactivity
7,QVQLVESGGGLVQAGGSLRLSCAASGRILGNNVMGWYRQAPGKERELVAAITSSGGRTYYADSVKGRFTISRDNAKNTVYLQMNSLKPEDTAVYYCAAERRYYGKFNYWGQGTQVTVSS,high polyreactivity
8,QVQLVESGGGLVQAGGSLRLSCAASAIIFAQYTMGWNRQAPGKERELVAAINRNGGSTYYADSVKGRFTISRDNAKNTVYLQMNSLKPEDTAVYYCNADALGFRYDYWGQGTQVTVSS,low polyreactivity
9,QVQLVESGGGLVQAGGSLRLSCAASGRNFDRNAMGWSRQAPGKERELVARIDPGDDTNYADSVKGRFTISRDNAKNTVYLQMNSLKPEDTAVYYCATDPDYVLYRTAYYEYDYWGQGTQVTVSS,low polyreactivity
10,QVQLVESGGGLVQAGGSLRLTCAASGGTFGSYAMGWYRPAPGKERELVAVISSGGSTYYADSVKGRFTISRDNAKNTVYLQMNSLKPEDTAVYYCARRTRTTRGKNGYWGQGTKVTVSS,high polyreactivity
11,QVQHVESGGGLVQAVGSLRLSCAASGIIFPRTAMGWYGQAPGKERELVAGISRSGGSTSYADSVKGRFTISRDNAKNTVYLQMNSRKPEDTAVYYCATRGHPFKKSYGSWGQGTQVTVSS,high polyreactivity
12,QVQLVESGGGLVQAGGSLRLSCAASGSTFITYAMGWSRQAPGKERELVAAISDSGGDTYYADSVKGRFTISRDYAKNTVYLQMISLNPEDTAVFYCAAEDDRYVYGDMNYWGQGTQVTVSS,low polyreactivity
13,QVQLVESGGGLVQAGGSLRLSCAASGYIFTIYAMGWYRQAPGKERELVAAITWSGATTYYADSVKGRFTISRDNAKNTVYLQMNSLKPEDTAVYYCNADYWHYYEDYDSWGQGTQVTVSS,low polyreactivity
14,QVQLVESGGGIVQAGGSLRLSCAASGRIFGWYAMGWYREAPGKERELVAAISSGGRTKYADSVKGRFTISRDNAKNTVYLQMNSLKAEDTAVYYCNARRSYLPYKFGYDYWGQGTQVTVSS,low polyreactivity
15,QVHIVESGGGLVQAGGSLRLICAASGRTFNGYVMGWYRQAPGKEREFVAVINWSGGNTYYADSVKGRFTISRDNAKNTVYLQMNSLKPEDTAVYYCAARRVRSYAYDYWGQGTQVTVSS,high polyreactivity
16,QGHLDESGGGIVQAGGSLRLSCAASGITVVTYAMGWYRQAPGKERELVAAISRSGGRTYYADSVKGRFTISRDNAKNTVYLLMNSLKPEDTAVYYCAAERKNKYDYWGQGTQVTVSS,high polyreactivity
17,QVHLVESGGGLVQAGGSLRLSCAASGSTFWGYTMGWYRQAPGKERELVAAISTIGGSTYYADSVKGRFTISRDNAKNTVYLQMNSLKTEDTAVYYCAAYKGKHYKEGYWGQGTQVTVSS,low polyreactivity
18,QVQLVESGGGLVQAGGSLRLSCAASGRIFQYNVMGWYRQAPGKERELVAAISSGGNTYYADSVKGRFTISRDNAKNTVYLQMNSLKPEDTAVYYCAADHYVPWPNYDYDYWGQGTQVTVSS,low polyreactivity
19,QVQLVESGGGLVQAGGSLRLSCAASGSIFYWYAMGWYRQAPGKERELVAAISSSGSTNYADSVKGRFTISRDNAKNTVYLQMNSLKPEDTAVYYCAAYRTGYNGWGYGYWGQGTQVTVSS,high polyreactivity
20,QVQLVESGGGLVQAGGSLRLSCGASGSTFNWYTMGWYRQAPGKERELVDAISMNGGRTYYADSVKWRFTISRDKAKNTVYLQMNSLKPEDTAVYYCAAQISFYFAQYNLARFRGYYWGQGTQVTVSS,high polyreactivity
21,QVQLVESGGGLVQAGGSLRLSCAASGRTSLNYAMGWYRQAPGKERELVAAITRGGGGTYYADSVKGRFTISRDNAKNTVYLQMNSLIPEDTAVYYCNRVFSLYGYGWQKYDYWGQGTQVTVSS,high polyreactivity
